From patent US20030211575A1

Columns and labels:
Assay in all cases: cell-based or functional assay
[1] = biological target: Shaker H4 K+ channel, N-terminal deletion 6-46, P475K mutant (Drosophila) (UniProt P08510)
[2] = biological target: Shaker H4 K+ channel, N-terminal deletion 6-46, P475H mutant (Drosophila) (UniProt P08510)
[3] = biological target: Shaker H4 K+ channel, N-terminal deletion 6-46, P475E mutant (Drosophila) (UniProt P08510)
[4] = biological target: Kv2.1 K+ channel P406D mutant (rat) (UniProt P15387)
[5] = biological target: Shaker H4 K+ channel, N-terminal deletion 6-46, P475D mutant (Drosophila) (UniProt P08510)
Sequence of Shaker H4 K+ channel, N-terminal deletion 6-46, P475D mutant (Drosophila) (P08510 whole entry P475D): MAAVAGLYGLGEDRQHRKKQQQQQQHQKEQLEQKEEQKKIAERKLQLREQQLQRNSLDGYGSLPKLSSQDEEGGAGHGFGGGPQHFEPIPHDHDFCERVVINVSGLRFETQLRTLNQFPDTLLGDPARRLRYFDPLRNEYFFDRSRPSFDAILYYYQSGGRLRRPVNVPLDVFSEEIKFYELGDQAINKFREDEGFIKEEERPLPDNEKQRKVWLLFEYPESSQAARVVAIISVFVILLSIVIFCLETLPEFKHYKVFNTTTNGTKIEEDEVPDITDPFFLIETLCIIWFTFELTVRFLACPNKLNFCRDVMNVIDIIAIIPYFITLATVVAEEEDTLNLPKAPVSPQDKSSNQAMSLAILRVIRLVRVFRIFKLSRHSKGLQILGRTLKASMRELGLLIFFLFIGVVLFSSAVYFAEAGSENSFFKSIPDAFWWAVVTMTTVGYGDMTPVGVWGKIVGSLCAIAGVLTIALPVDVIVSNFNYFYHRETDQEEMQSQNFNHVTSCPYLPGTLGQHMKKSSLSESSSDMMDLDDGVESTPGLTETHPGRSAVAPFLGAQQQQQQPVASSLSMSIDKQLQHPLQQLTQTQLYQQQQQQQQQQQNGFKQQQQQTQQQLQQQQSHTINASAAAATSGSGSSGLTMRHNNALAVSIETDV

Measured: block of channel current (two-electrode voltage clamp, Xenopus oocytes); concentration called saturating

Sequence of Shaker H4 K+ channel, N-terminal deletion 6-46, P475E mutant (Drosophila) (P08510 whole entry P475E): as the sequence (P08510 whole entry P475D) above, with D475E counted along it
Sequence of Shaker H4 K+ channel, N-terminal deletion 6-46, P475K mutant (Drosophila) (P08510 whole entry P475K): as the sequence (P08510 whole entry P475D) above, with D475K counted along it
Sequence of Shaker H4 K+ channel, N-terminal deletion 6-46, P475H mutant (Drosophila) (P08510 whole entry P475H): as the sequence (P08510 whole entry P475D) above, with D475H counted along it

agitoxin2 (from UniProt P46111 1-38) (peptide)
1 µM: [1] | [2] | [3] | [4] | [5]
